Earlier results as cited in article PMC2864607.
Where two headings read alike, the source gives them in different places.

Key:
[1] = target: His49 (UniProt position 49, PGIICHLDDPK)
[2] = target: His203 (UniProt position 203, LTPHRHRVSAI)
[3] = target: His451 (UniProt position 451, EASGCHYGVLT)
[4] = system: His2 (position 2, ----GHG----); test: NMR; details: 25 °C; 0.02 M NaCl; Free model peptide
[5] = target: His326 (UniProt position 328, GHNVKHKSAIV)
[6] = target: His318 (UniProt position 320, VSSTWHWTGHN)
[7] = target: His322 (UniProt position 324, WHWTGHNVKHK)
[8] = target: His3 (position 3, ---FKHLK---); test: NMR; details: 25 °C; 0.02 M NaCl; Free model peptide
[9] = target: His3 (position 3, ---KSHPE---); test: NMR; details: 25 °C, 0.02 M NaCl, Free model peptide
[10] = Protein bound specifically to its cognate DNA recognition sequence

Molecule: TATA-binding protein (PwTBP) (Pyrococcus woesei)
- pKa [1, 10]: 7.2
- pKa ([1]; Unbound protein (no DNA)): 6.2

Molecule: Large T antigen origin-binding domain (T-ag-obd) (Simian virus 40)
- pKa [2, 10]: >8
- pKa ([2]; Unbound protein (no DNA)): ~5

Molecule: Glucocorticoid receptor (DNA-binding domain) (Rattus norvegicus)
- pKa [3, 10]: 7.9
- pKa ([3]; Unbound protein (no DNA)): 5.9

Molecule: GHG model tripeptide (Gly-His-Gly) (synthetic)
- pKa [4]: 6.68 ± 0.02

Molecule: E2 protein C-terminal DNA-binding domain (E2C) (Human papillomavirus type 16)
- pKa [5, 10]: 6.2
- pKa ([5]; Unbound protein (no DNA)): 6.2
- pKa [6, 10]: 7.8
- pKa ([6]; Unbound protein (no DNA)): 6.7
- pKa [7, 10]: 6.3
- pKa ([7]; Unbound protein (no DNA)): 6.3

Molecule: FKHLK [FKHLK model peptide (myoglobin-derived) (synthetic (sequence from Physeter macrocephalus myoglobin))]
- pKa [8]: 6.16 ± 0.02

Molecule: KSHPE [KSHPE model peptide (myoglobin-derived) (synthetic (sequence from Physeter macrocephalus myoglobin))]
- pKa ([9]; cis His-Pro isomer): 6.23 ± 0.02
- pKa ([9]; trans His-Pro isomer): 6.69 ± 0.02
